Laboratory results published in US20030108554A1 (published 2003).
Changes are numbered by the printed parent chain.

How the values were obtained:
Experiment in all cases: yeast two-hybrid
[1] = target: T1, GIP130a (human, UniProt Q4L180 1-1135)
T1 construct: Full length; tested as GAL4 domain fusion in yeast two-hybrid
T1 sequence: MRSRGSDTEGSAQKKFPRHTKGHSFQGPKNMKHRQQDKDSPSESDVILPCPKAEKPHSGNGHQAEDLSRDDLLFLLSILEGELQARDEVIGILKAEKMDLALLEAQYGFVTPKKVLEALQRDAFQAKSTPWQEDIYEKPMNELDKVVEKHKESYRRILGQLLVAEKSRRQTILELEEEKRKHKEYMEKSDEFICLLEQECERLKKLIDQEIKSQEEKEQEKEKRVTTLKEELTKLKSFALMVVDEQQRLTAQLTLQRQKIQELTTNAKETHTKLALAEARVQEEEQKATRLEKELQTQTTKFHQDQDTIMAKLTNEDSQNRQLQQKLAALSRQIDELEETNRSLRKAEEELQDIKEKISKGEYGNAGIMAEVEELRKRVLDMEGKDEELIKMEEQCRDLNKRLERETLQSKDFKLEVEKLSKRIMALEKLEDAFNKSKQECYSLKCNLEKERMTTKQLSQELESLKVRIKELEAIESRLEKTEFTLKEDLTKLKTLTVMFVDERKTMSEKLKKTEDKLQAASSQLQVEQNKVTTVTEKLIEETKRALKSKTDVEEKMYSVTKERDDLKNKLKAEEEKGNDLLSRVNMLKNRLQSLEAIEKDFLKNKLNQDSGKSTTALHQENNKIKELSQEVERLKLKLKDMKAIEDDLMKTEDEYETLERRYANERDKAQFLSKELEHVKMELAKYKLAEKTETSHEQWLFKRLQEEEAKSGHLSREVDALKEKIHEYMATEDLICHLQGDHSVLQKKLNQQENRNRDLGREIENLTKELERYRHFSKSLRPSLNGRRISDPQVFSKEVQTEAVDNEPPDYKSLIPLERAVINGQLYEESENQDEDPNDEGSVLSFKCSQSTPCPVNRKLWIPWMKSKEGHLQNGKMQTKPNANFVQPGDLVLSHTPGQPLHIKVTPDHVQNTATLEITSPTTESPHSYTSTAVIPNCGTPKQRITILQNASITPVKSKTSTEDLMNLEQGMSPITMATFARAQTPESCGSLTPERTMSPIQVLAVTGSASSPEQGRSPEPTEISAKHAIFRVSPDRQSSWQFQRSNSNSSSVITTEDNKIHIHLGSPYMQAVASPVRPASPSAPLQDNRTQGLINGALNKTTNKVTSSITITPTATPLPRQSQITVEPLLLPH

[2] = target: T2, GIP130b (human, UniProt Q4L180 1-1128)
T2 construct: Full length; tested as GAL4 domain fusion in yeast two-hybrid
T2 sequence: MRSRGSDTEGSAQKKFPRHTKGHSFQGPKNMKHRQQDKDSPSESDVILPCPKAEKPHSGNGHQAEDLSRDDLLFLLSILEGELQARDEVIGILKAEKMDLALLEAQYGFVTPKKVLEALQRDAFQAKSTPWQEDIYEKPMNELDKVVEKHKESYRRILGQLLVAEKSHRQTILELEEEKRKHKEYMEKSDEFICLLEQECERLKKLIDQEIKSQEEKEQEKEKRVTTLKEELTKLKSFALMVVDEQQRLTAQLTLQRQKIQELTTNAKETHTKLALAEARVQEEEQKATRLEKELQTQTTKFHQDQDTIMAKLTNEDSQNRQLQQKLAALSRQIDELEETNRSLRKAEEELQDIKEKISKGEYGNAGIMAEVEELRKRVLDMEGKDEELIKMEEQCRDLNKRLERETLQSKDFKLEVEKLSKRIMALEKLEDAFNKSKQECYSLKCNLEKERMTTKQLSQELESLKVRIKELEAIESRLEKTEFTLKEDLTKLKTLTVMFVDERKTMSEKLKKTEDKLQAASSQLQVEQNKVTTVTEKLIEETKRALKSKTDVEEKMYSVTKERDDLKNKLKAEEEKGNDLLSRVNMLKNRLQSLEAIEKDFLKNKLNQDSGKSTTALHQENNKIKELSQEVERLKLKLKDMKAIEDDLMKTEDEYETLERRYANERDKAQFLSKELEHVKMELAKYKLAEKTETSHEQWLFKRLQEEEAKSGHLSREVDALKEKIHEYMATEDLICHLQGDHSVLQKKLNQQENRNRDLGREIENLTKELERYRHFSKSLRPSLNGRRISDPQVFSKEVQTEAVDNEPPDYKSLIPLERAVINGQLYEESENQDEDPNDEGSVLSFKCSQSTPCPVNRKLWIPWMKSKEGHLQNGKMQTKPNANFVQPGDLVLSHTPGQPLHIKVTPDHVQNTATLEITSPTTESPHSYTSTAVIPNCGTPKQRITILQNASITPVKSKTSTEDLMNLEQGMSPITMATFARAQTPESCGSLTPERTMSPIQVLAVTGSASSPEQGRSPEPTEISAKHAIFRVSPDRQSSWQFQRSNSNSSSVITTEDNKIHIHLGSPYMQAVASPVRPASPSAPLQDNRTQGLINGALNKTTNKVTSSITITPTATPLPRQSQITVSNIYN

[3] = target: T3, GIP130c (human, UniProt Q4L180 1-1128)
T3 construct: Full length; tested as GAL4 domain fusion in yeast two-hybrid
T3 sequence: T2 sequence with H168R

[4] = target: the molecule itself

Measured: binding result

B1: GIP90 (GPBP interacting protein 90 kDa) (other)
chain: MRSRGSDTEGSAQKKFPRHTKGHSFQGPKNMKHRQQDKDSPSESDVILPCPKAEKPHSGNGHQAEDLSRDDLLFLLSILEGELQARDEVIGILKAEKMDLALLEAQYGFVTPKKVLEALQRDAFQAKSTPWQEDIYEKPMNELDKVVEKHKESYRRILGQLLVAEKSRRQTILELEEEKRKHKEYMEKSDEFICLLEQECERLKKLIDQEIKSQEEKEQEKEKRVTTLKEELTKLKSFALMVVDEQQRLTAQLTLQRQKIQELTTNAKETHTKLALAEARVQEEEQKATRLEKELQTQTTKFHQDQDTIMAKLTNEDSQNRQLQQKLAALSRQIDELEETNRSLRKAEEELQDIKEKISKGEYGNAGIMAEVEELRKRVLDMEGKDEELIKMEEQCRDLNKRLERETLQSKDFKLEVEKLSKRIMALEKLEDAFNKSKQECYSLKCNLEKERMTTKQLSQELESLKVRIKELEAIESRLEKTEFTLKEDLTKLKTLTVMFVDERKTMSEKLKKTEDKLQAASSQLQVEQNKVTTVTEKLIEETKRALKSKTDVEEKMYSVTKERDDLKNKLKAEEEKGNDLLSRVNMLKNRLQSLEAIEKDFLKNKLNQDSGKSTTALHQENNKIKELSQEVERLKLKLKDMKAIEDDLMKTEDEYETLERRYANERDKAQFLSKELEHVKMELAKYKLAEKTETSHEQWLFKRLQEEEAKSGHLSREVDALKEKIHEYMATEDLICHLQGDHSVLQKKTKSTRKQEQRFRKRD
notes: Full length; tested as GAL4 domain fusion in yeast two-hybrid/three-hybrid; fusion parts are not written as pieces
binds: all assays above
